Biological target: highest binding amyloid (in vitro)
Assay: calculated from in vitro binding of the antibody to amyloid; method not described

Michaelis-Menton EC 90 (calculated): 36.5 µg/mL
B1: CAEL-101 antibody having a heavy chain variable domain (VH) as set forth in SEQ ID NO:1 and a light chain variable domain (VL) as set forth in SEQ ID NO:2 (antibody, human IgG1, V domains shown)
VH: QVQLKESGPGLVAPSQSLSITCTVSGFSLSSYGVSWVRQPPGKGLEWLGVIWGDGSTNYHPNLMSRLSISKDISKSQVLFKLNSLQTDDTATYYCVTLDYWGQGTSVTVSS
VL: DVVMTQTPLSLPVSLGDQASISCRSSQSLVHRNGNTYLHWYLQKPGQSPKLLIYKVSNRFSGVPDRFSGSGSGTDFTLKISRVEAEDLGLYFCFQTTYVPNTFGGGTKLEIK
